According to the supplement of paper PMC6755084:

B1: minF1; a variant is named by its letters at N, in order (parent)
chain: GAGACCGCAACTGAAAAGTTGTTNNNNAANNNNGGNTNNATTTCTGCACGTAGAAGCAAAAGGC

Variants of: B1
Assay: fraction ligated after 30 min (ligated reads / total reads); higher = more ligase activity
Conditions: with F1*subA RNA substrate (template-directed ligation), 42 °C
Description: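 Chip-synthesised pool of minF1 ligase ribozyme variants (single and double substitutions, single to quadruple deletions, bulge and P2 designed variants) was transcribed with T7 and reacted as a pool with excess substrate F1*subA for 30 min at 42 C in 50 mM EPPS pH 8.5, 25 mM MgCl2. Ligated and unligated RNAs were separated by PAGE, barcoded by RT and deep sequenced; fraction ligated = ligated reads / total reads, relative activity = FL / FL of wild-type minF1 (0.76); sequencing FL correlated with PAGE (R2 = 0.98). Sequences are the DNA template of the ribozyme.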

Row | Variant | fraction ligated
1 | ACAGAGGAGTG | 0.00401
2 | TCAAGGTGTGA T23A A29T | 0.00393
3 | TCAGATGTGTG T23A | 0.00627
4 | TCAGAGATTGA | 0.00355
5 | TCAATGGAGTT G34T T37G A40G | 0.00127
6 | ACAGAGGGTGA | 0.00282
7 | TCAGAGATGTA T23A | 0.00211
8 | TCAGGATGTGA | 0.00269
9 | ACAATGGAGTA G34T | 0.0117
10 | TCAGGGATGTA T23A | 0.00201
11 | TCAGTATGTGA | 0.00458
12 | TCAGGGAGTGA A29T | 0.00242
13 | TCAGGGATGTG T23A A29T | 0.0102
14 | ACAGATGAGTT G34T T37G A40G | 0.00147
15 | TCAGAGGAGTA | 0
16 | TCAGAGGAGTG | 0.00573
17 | TAGATGGAGTT T23A G34T T37G A40G | 0.00177
18 | TCAGTGATTGA T23A | 0.00266
19 | ACAAGGATGTG A29T | 0.00671
20 | ACAGATGGGTT G34A T37G | 0.00125
21 | TCAGGGAGTGA T23A A29T | 0.000582
22 | TCAGGGTGTGA T23A | 0.00148
23 | TCAGATGAGTT G34T T37G A40G | 0.00127
24 | TCAGAGATGTA | 0.000871

Row | Variant | fraction ligated
25 | TCAGAGATGTG | 0.0039
26 | TCAGATGGGTT G34T T37G A40G | 0.000744
27 | ACAGAGATTGA | 0.00246
28 | TCAGGGATTGA | 0.00138
29 | TAGATGGATGA T23A | 0.00368
30 | TCAGTGATTGA | 0.00169
31 | TCAGGGTGTGA | 0.00203
32 | ACAATGGGTGA | 0.00353
33 | ACAAGGATGTA A29T | 0.00548
34 | TCAGGGATGTG A29T | 0.00266
35 | ACAGGGAGTGA A29T | 0.00347
36 | ACAAGGAGTGA | 0.00357
37 | TAGATGGAGTT T23A G34T T37G | 0.000868
38 | ACAGGATGTGA A28T A29G | 0.0031
39 | ACAGATGGGTT G34T T37G A40G | 0.00113
40 | TCAGGGATGTA A29T | 0.000605
41 | TCAGATGTTGA T23A | 0.00154
42 | TAGATGTGTGA | 0.00395
43 | TCAATGAGTGA T23A | 0.00315
44 | TCAGATGATGA | 0.00144
45 | TCAATGGGTGA | 0.00124
46 | CAGATGGAGTT T23A G34T T37G A40G | 0.00303
47 | TCAATGGTGTG T23A | 0.00466
48 | TCAATGGAGTA T23A G34T | 0.0178

Row | Variant | fraction ligated
49 | TCAATGGATGA | 0.00193
50 | TCAATGTGTGA | 0.00236
51 | TCAAGGATGTA A29T | 0.00204
52 | ACAGATGAGTA G34T | 0.00197
53 | TCAGAGGATGA T23A | 0.00378
54 | TAGATGGAGTG T23A G34T | 0.00936
55 | TCAAGGATGTG T23A | 0.00539
56 | TCAGAGGAGTG T23A | 0.0042
57 | TCAGATGAGTA G34T | 0.00143
58 | TCAAGGATTGA T23A A29T | 0.00443
59 | TAGATGGAGTT G34T T37G A40G | 0.00199
60 | TCAGATGAGTT T23A G34T T37G A40G | 0.00258
61 | ACAGGGTGTGA | 0.00435
62 | TCAGATGTTGA | 0.0015
63 | TCAGGATGTGA T23A | 0.00221
64 | TCAGATGAGTT G34T T37G | 0.0017
65 | ACAGATGGGGT G34A G35T T37G A40T | 0.00109
66 | TCAAGATGTGA T23A A28T A29G | 0.00482
67 | TCAGAGGTGTG T23A | 0.00531
68 | CAGATGGAGTT G34T T37G | 0.0026
69 | TCAGAGGAGTT G34T T37G A40G | 0.000453
70 | TCAGATGGGTG T23A G34T | 0.00324
71 | TCAGATGGGTG T23A G34A | 0.00659
72 | TCAATGATGTG T23A | 0.00503

Row | Variant | fraction ligated
73 | TCAGGGATTGA T23A | 0.000376
74 | ACAGATGTGTG | 0.0127
75 | ACAGATGTGTA | 0.00227
76 | ACAGAATGTGA | 0.00222
77 | CAGATGGTGTG T23A | 0.00474
78 | TCAAGGAGTGA T23A | 0.00195
79 | TCAAGATGTGA A29T | 0.00235
80 | TCAAGATGTGA A29G | 0.0031
81 | TCAGGATGTGA A28T A29G | 0.00322
82 | CAGATGGATGA | 0.00376
83 | TCAGATGGGTT T23A G34A G35T T37G | 0.00134
84 | AAGATGGGTGA | 0.00372
85 | ACAGATGGGTT G34A G35T T37G A40G | 0.000584
86 | TCAGATGAGTG T23A | 0.00683
87 | TCAGAGATTGA T23A | 0.00203
88 | TCAGGATGTGA A29G | 0.00144
89 | TCAGGATGTGA A29T | 0.00155
90 | TCAATGATTGA | 0.00117
91 | ACAAGGATTGA | 0.00332
92 | TCAGATGGGTT G34A G35T T37G A40G | 0.000594
93 | TCAGTGAGTGA | 0.00311
94 | TCAGAATGTGA | 0.00302
95 | TCAGAGGTTGA | 0.00136
96 | ACAATGGAGTG | 0.00309

Row | Variant | fraction ligated
97 | ACAATGGAGTA | 0.00362
98 | ACAATGGTGTA | 0.00264
99 | ACAATGGTGTG | 0.00545
100 | TCAAGGTGTGA A29T | 0.00119
101 | ACAGATGAGTG G34T | 0.00398
102 | TCAGAGGAGTT T23A G34T T37G A40G | 0.000303
103 | TCAGATAGTGA | 0.00299
104 | ACAGGGTGTGA A29T | 0.000904
105 | TCAGATGAGTA T23A G34T | 0.00285
106 | TCAGATGGGTT G34A T37G | 0.00135
107 | TCAATGGAGTA T23A | 0.00206
108 | TCAGGGATTGA T23A A29T | 0.0045
109 | TCAGATGGGTA T23A G34A | 0.0017
110 | TCAGATGGGTA T23A G34T | 0.00312
111 | TCAGAGAGTGA T23A | 0.0017
112 | ACAAGGTGTGA | 0.00367
113 | ACAGGGATGTA A29T | 0.00654
114 | CAGATGTGTGA | 0.00342
115 | ACAATGGTTGA | 0.00142
116 | TCAGTGATGTA T23A | 0.00165
117 | ACAGATAGTGA | 0.00391
118 | TCAATATGTGA | 0.00184
119 | TCAGAGGTGTA | 0.0016
120 | TCAGAGGTGTG | 0.00329

Row | Variant | fraction ligated
121 | ACAGGATGTGA A29T | 0.00171
122 | ACAGGATGTGA A29G | 0.00108
123 | CAGATGGTGTA T23A | 0.00242
124 | ACAATGATGTA | 0.00197
125 | ACAATGATGTG | 0.00556
126 | TCAAGATGTGA T23A | 0.0017
127 | TCAGAGGAGTG G34T | 0.00594
128 | TCAGATGGGTT G34T T37G | 0.00104
129 | ACAGAGTGTGA | 0.00284
130 | TAGATGGTGTG T23A | 0.00451
131 | TCAGAGGAGTG T23A G34T | 0.00498
132 | ACAGATGAGTT G34T T37G | 0.000925
133 | TCAATGGAGTG T23A | 0.0035
134 | TCAGTGGAGTA T23A G34T | 0.0212
135 | TCAGTGAGTGA T23A | 0.0046
136 | CAGATGGAGTT G34T T37G A40G | 0.000312
137 | TCAATGGTGTA | 0.00227
138 | TCAATGGTGTG | 0.00437
139 | TCAATGGTTGA | 0.00179
140 | TCAGTGGAGTA T23A | 0.00382
141 | TCAAGGTGTGA | 0.00226
142 | CAGATGGTGTG | 0.00377
143 | CAGATGGTGTA | 0.00171
144 | ACAGATGGGTT G34A G35T T37G | 0.000596

Row | Variant | fraction ligated
145 | TCAATGGAGTG T23A G34T | 0.0342
146 | TCAGATGAGTA T23A | 0.00194
147 | TAGATGGTTGA | 0.00065
148 | TCAAGGATTGA A29T | 0.00468
149 | TCAGAGGATGA | 0.00215
150 | TCAGAGTGTGA | 0.00219
151 | AAGATGGAGTT G34T T37G A40G | 0.0006
152 | TCAGAATGTGA T23A | 0.00396
153 | TCAGATGGGTT T23A G34A T37G A40G | 0
154 | TCAGGGATGTG T23A | 0.00389
155 | TCAGGATGTGA T23A A29G | 0.00232
156 | TCAGGATGTGA T23A A29T | 0.00222
157 | ACAATGGAGTT G34T T37G A40G | 0.00101
158 | TCAAGGATTGA T23A | 0.00297
159 | TCAGTGATGTG T23A | 0.00385
160 | AAGATGGTTGA | 0.00185
161 | TCAATGGAGTT T23A G34T T37G A40G | 0.00124
162 | TCAGGGATTGA A29T | 0.00182
163 | TCAGATAGTGA T23A | 0.00511
164 | TCAGGGAGTGA T23A | 0.0029
165 | TCAGATGTGTA T23A | 0.00304
166 | CAGATGGAGTT T23A G34T T37G | 0.00071
167 | TCAGGGATGTA T23A A29T | 0.00445
